From patent EP1644414B1 (Crucell Holland B.V., dated 2015)
Numbering of substitutions follows the chain as printed.

B1: 03-015 (antibody, V domains shown)
VH: EVQLVESGGGVVRPGGSLRLSCAASGFTFDDYGMSWVRQAPGKGLEWVSGINWNGGSTGYADSVKGRFTISRDNAKNSLYLQMNSLRAEDTAVYYCARGLSLRPWGQGTLVTVSS
VL: SSELTQDPAESVALGQTVRITCQGDSLRSYYASWYQQKPGQAPVLVIYGKNNRPSGIPDRFSGSSSGNTASLTITGAQAEDEADYYCNSRDSSGNHVVFGGGTKLTVLG
B2: 03-001 (antibody, V domains shown)
VH: EVQLVESGGGLVKPGGSLRLSCAASGFTFSGYSMNWVRQAPGKGLEWVSSISGGSTYYADSRKGRFTISRDNSKNTLYLQMNNLRAEDTAVYYCARHRFRHVFDYWGQGTLVTVSS
VL: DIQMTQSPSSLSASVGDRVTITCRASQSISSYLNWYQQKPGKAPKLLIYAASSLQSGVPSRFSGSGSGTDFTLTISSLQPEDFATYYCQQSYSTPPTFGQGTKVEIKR
B3: 03-002 (antibody, V domains shown)
VH: EVQLVESGGGLVKPGGSLRLSCAASGFTFSGYSMSWVRQAPGKGLEWVGRTRNKANSYTTEYAASVKGRFTISRDDSKNSLYLQMNSLKTEDTAVYYCARYYSRSLKAFDYWGQGTLVTVSS
VL: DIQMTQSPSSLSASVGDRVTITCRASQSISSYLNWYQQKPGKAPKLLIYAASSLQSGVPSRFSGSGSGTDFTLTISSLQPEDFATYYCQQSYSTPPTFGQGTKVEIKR
B4: 03-009 (antibody, V domains shown)
VH: EVQLVESGGGVVQPGRSLRLSCAASGFTFSDYPMNWVRQAPGKGLEWVSSISGSGGSTYYADSVKGRFTISRDNSKNTLYLQMNSLRAEDTAVYYCAKGLFMVTTYAFDYWGQGTLVTVSS
VL: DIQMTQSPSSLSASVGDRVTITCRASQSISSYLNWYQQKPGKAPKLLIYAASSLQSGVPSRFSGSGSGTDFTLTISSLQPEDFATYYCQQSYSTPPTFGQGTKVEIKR
B5: 03-006 (antibody, V domains shown)
VH: EVQLVESGGGLVQPGGSLRLSCAASGFTFSGYPMHWVRQAPGKGLEWVAVISYDGSNKYYADSVKGRFTISRDNSKNTLYLQMNSLRAEDTAVYYCAKDGSPRTPSFDYWGQGTLVTVSS
VL: DIQMTQSPHSLSASVGDRVTITCRASQGISNYLAWYQQKPGKVPKLLIYAASTLQSGVPSRFSGSGSGTDFTLTISSLQPEDVGVYYCQQRFRTPVTFGQGTKLEIKR
B6: 03-013 (antibody, V domains shown)
VH: EVQLVESGGGLVQPGGSLRLSCAASGFTFSDHYMDWVRQAPGKGLEWVGRTRNKANSYTTEYAASVKGRFTISRDDSKNSLYLQMNSLKTEDTAVYYCAKGLTPLYFDYWGQGTLVTVSS
VL: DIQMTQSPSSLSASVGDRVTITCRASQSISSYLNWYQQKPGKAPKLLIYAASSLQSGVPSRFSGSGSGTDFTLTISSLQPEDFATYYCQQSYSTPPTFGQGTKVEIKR
B7: 03-014 (antibody, V domains shown)
VH: B6 VH with K100R, L102I, T103S, L105F
VL: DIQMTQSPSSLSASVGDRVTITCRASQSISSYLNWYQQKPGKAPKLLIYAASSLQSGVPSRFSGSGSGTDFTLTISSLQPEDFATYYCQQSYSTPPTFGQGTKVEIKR

What was measured:
[1] = biological target: full length S protein of SARS-CoV expressed on HEK293T cells (SARS-CoV strain Frankfurt 1, UniProt P59594 14-1255); assay: flow cytometry, IgG 10 µg/ml
[2] = biological target: S318-510 fragment (amino acids 318-510 of the S protein of SARS-CoV strain Frankfurt 1) (SARS-CoV strain Frankfurt 1, UniProt P59594 318-510); assay: IgG ELISA on captured S318-510
[3] = biological target: S565 fragment (amino acids 1-565 of the S protein of SARS-CoV), myc-tagged (SARS-CoV strain Frankfurt 1, UniProt P59594 14-565); assay: IgG ELISA on captured S565
[4] = biological target: spike protein of SARS-CoV as present in the SARS-CoV preparation (SARS-CoV strain Frankfurt 1, UniProt P59594 14-1255); assay: sandwich ELISA, detection with anti-spike rabbit sera IMG-542 and IMG-557

| Binder | binding result [1] | binding result [2] | binding result [3] | binding result [4] |
| --- | --- | --- | --- | --- |
| B1 | binds | no binding | no binding |  |
| B2 |  | no binding |  |  |
| B3 |  | no binding |  |  |
| B4 |  | no binding |  |  |
| B5 | binds | binds | binds |  |
| B6 | binds | binds | binds | binds |
| B7 |  | binds | binds |  |
